Patent publication US20250186594A1

How the values were obtained:
[1] = molecular target: His-tagged human IL-18BP (human) (UniProt O95998); assay: AlphaLISA of free IL-18BP (signal at 615 nm) after incubation of His-tagged human IL-18BP with a dilution series of the IL-18 polypeptide
[2] = molecular target: His-tagged human IL-18BP (human) (UniProt O95998); assay: AlphaLISA of free IL-18BP
[3] = molecular target: Fc fused human IL-18BP isoform a (IL-18BPa) (human) (UniProt O95998); assay: SPR, Fc-IL-18BPa captured, 1:1 fit
Sequence of Fc fused human IL-18BP isoform a (IL-18BPa) (human) (O95998 31-194): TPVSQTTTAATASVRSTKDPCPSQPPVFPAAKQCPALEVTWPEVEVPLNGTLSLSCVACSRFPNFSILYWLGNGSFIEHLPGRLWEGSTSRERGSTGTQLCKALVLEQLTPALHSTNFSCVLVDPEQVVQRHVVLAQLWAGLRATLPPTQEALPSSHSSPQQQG

Sequence of Native IL-18 wild-type (SEQ ID NO: 1, native sequence) (Q14116 37-193): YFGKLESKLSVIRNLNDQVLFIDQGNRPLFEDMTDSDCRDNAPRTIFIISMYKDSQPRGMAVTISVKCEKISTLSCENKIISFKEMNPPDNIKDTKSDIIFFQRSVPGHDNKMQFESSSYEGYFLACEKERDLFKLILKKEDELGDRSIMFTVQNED

| Substance | IC50 (read off the curve) [1] | Kd [2] | Kd [3] | koff [3] | kon [3] |
| --- | --- | --- | --- | --- | --- |
| IL-18 variant SEQ ID NO: 30 with 20 kDa PEG (E6K, V11I, C38A, K53A, T63A, C76A, C127A, C68-20kPEG) (from UniProt Q14116 37-193) (ligand) |  | 19.7 nM | 12 nM | 0.00397 s⁻¹ | 330000 M⁻¹ s⁻¹ |
| IL-18 variant SEQ ID NO: 57 (E6K, C38S, K53A) (from UniProt Q14116 37-193) (ligand) |  | 48.4 nM | 1.8 nM | 0.00311 s⁻¹ | 1.63e+06 M⁻¹ s⁻¹ |
| IL-18 variant SEQ ID NO: 57 with 30 kDa PEG (E6K, C38S, K53A, C68-30kDPEG) (from UniProt Q14116 37-193) (ligand) |  | 42.5 nM | 23 nM | 0.00397 s⁻¹ | 177000 M⁻¹ s⁻¹ |
| IL-18 variant SEQ ID NO: 59 (E6K, C38A, K53A) (from UniProt Q14116 37-193) (ligand) |  | 36.4 nM | 2.05 nM | 0.00301 s⁻¹ | 1.47e+06 M⁻¹ s⁻¹ |
| IL-18 variant SEQ ID NO: 59 with 30 kDa PEG (E6K, C38A, K53A, C68-30kDPEG) (from UniProt Q14116 37-193) (ligand) |  | 75.2 nM | 19.4 nM | 0.00355 s⁻¹ | 199000 M⁻¹ s⁻¹ |
| IL-18 variant SEQ ID NO: 60 (E6K, C38Q, K53A) (from UniProt Q14116 37-193) (ligand) |  | 24.8 nM | 1.7 nM | 0.00308 s⁻¹ | 1.87e+06 M⁻¹ s⁻¹ |
| IL-18 variant SEQ ID NO: 60 with 30 kDa PEG (E6K, C38Q, K53A, C68-30kPEG) (from UniProt Q14116 37-193) (ligand) |  | 63.7 nM | 22 nM | 0.00395 s⁻¹ | 193000 M⁻¹ s⁻¹ |
| IL-18 variant SEQ ID NO: 61 with 30 kDa PEG (E6K, C38A, K53A, C76A, C68-30kPEG) (from UniProt Q14116 37-193) (ligand) |  |  | 37.4 nM | 0.00382 s⁻¹ | 102000 M⁻¹ s⁻¹ |
| IL-18 variant SEQ ID NO: 62 (E6K, C38A, K53A, C127A) (from UniProt Q14116 37-193) (ligand) |  | 69.6 nM | 1.96 nM | 0.00315 s⁻¹ | 1.61e+06 M⁻¹ s⁻¹ |
| IL-18 variant SEQ ID NO: 62 with 30 kDa PEG (E6K, C38A, K53A, C127A, C68-30kPEG) (from UniProt Q14116 37-193) (ligand) |  | 29.3 nM | 24 nM | 0.00342 s⁻¹ | 142000 M⁻¹ s⁻¹ |
| IL-18 variant SEQ ID NO: 232 (E6K, V11I, C38A, I49M, K53A, T63A, C76A, C127A) (from UniProt Q14116 37-193) (ligand) |  | 25.8 nM |  |  |  |
| IL-18 variant SEQ ID NO: 240 (E6R, V11I, C38A, K53A, T63A, C76A, C127A) (from UniProt Q14116 37-193) (ligand) |  | 5.46 nM |  |  |  |
| IL-18 variant SEQ ID NO: 243 (Y1M, E6K, V11I, C38A, K53A, T63A, C76A, C127A) (from UniProt Q14116 38-193) (ligand) |  | 2.25 nM |  |  |  |
| Native IL-18 wild-type (SEQ ID NO: 1, native sequence) (from UniProt Q14116 37-193) (ligand) | 0.6 nM | 0.411 nM | 0.246 nM | 0.00038 s⁻¹ | 1.28e+06 M⁻¹ s⁻¹ |

Second part, the substance after the results:

| IC50 (read off the curve) [1] | Kd [2] | Kd [3] | koff [3] | kon [3] | Substance |
| --- | --- | --- | --- | --- | --- |
| 8 nM | 24.6 nM | 3.05 nM | 0.00345 s⁻¹ | 1.05e+06 M⁻¹ s⁻¹ | IL-18 variant SEQ ID NO: 30 (E6K, V11I, C38A, K53A, T63A, C76A, C127A) (from UniProt Q14116 37-193) (ligand) |
|  | 19.7 nM | 4.75 nM | 0.00386 s⁻¹ | 813000 M⁻¹ s⁻¹ | IL-18 variant SEQ ID NO: 30 with 5 kDa PEG (E6K, V11I, C38A, K53A, T63A, C76A, C127A, C68-5kPEG) (from UniProt Q14116 37-193) (ligand) |
|  | 15.7 nM | 6.83 nM | 0.0036 s⁻¹ | 527000 M⁻¹ s⁻¹ | IL-18 variant SEQ ID NO: 30 with 10 kDa PEG (E6K, V11I, C38A, K53A, T63A, C76A, C127A, C68-10kPEG) (from UniProt Q14116 37-193) (ligand) |
|  | 26.3 nM | 45.1 nM | 0.00451 s⁻¹ | 106000 M⁻¹ s⁻¹ | IL-18 variant SEQ ID NO: 30 with 30 kDa PEG (E6K, V11I, C38A, K53A, T63A, C76A, C127A, C68-30kPEG) (from UniProt Q14116 37-193) (ligand) |
|  |  | 2.1 nM | 0.0036 s⁻¹ | 1.74e+06 M⁻¹ s⁻¹ | IL-18 variant SEQ ID NO: 61 (E6K, C38A, K53A, C76A) (from UniProt Q14116 37-193) (ligand) |
|  | 20.3 nM | 1.5 nM | 0.00424 s⁻¹ | 2.82e+06 M⁻¹ s⁻¹ | IL-18 variant SEQ ID NO: 63 (E6K, C38A, K53A, C76A, C127A) (from UniProt Q14116 37-193) (ligand) |
|  | 0.14 nM |  |  |  | IL-18 variant SEQ ID NO: 230 (K8L, E6K, V11I, C38A, K53A, T63A, C76A, C127A) (from UniProt Q14116 37-193) (ligand) |
